Experimental data reported in patent US20100129369A1 (Eli Lilly, published 2010).
Blank lines part the entries; values can stand above or below the binder they belong to.

Assays:
[1] = target: T1, human c-Met (human, UniProt P08581 25-1390); assay: cell-based or functional assay
T1 sequence (P08581 25-1390): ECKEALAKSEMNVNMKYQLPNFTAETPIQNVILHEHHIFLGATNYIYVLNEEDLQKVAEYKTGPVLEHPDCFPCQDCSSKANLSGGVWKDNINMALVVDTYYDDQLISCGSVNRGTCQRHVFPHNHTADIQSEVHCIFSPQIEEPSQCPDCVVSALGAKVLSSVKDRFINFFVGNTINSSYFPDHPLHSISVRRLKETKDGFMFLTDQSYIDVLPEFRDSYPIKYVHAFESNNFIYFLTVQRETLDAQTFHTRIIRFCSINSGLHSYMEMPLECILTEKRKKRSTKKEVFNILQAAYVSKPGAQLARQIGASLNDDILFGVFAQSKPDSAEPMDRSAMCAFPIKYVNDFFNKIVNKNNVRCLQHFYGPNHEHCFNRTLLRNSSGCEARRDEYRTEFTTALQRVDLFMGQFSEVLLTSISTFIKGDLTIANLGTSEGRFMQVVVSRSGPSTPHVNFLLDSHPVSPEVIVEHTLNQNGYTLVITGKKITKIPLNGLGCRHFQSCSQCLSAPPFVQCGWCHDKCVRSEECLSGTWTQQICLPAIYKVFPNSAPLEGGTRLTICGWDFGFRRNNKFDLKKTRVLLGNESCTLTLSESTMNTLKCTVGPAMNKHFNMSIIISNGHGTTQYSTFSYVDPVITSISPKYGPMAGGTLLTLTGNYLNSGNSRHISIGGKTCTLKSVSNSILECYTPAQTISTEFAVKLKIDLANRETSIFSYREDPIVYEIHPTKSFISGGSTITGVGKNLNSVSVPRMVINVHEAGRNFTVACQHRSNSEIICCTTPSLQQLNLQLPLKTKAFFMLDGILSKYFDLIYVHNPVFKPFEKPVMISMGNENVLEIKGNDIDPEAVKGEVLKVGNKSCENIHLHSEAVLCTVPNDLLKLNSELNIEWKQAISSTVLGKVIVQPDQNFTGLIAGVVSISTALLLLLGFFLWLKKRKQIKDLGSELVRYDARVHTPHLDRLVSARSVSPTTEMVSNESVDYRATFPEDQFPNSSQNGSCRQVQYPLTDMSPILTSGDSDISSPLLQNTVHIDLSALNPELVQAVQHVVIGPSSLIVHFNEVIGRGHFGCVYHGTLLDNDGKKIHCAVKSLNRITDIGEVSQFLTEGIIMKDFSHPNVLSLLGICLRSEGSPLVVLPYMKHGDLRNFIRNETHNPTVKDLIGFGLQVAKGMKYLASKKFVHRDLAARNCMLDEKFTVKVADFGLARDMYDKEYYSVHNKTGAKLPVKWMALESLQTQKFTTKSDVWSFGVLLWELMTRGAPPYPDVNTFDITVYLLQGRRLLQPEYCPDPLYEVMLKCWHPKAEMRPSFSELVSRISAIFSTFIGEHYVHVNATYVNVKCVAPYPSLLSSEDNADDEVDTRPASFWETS

[2] = target: T2, human c-Met ECD-Fc-Flis (human); assay: HGF-blocking ELISA: HGF signal on coated c-Met ECD-Fc-Flis; Ab 125000.00 ng/mL
T2 construct: c-Met ECD fused to Fc with flag- and His-tag at the C-terminus; also called human c-Met extracellular domain (ECD)-Fc-Flis fusion; human c-Met-Flis-Fc ECD
Experimental: (§1) Wells of 96-well EIA/RIA high binding plates (Costar, #2592) are coated with 100 μL of human c-Met ECD-Fc-Flis (SEQ ID NO:72) (2 μg/mL) in Dulbecco's phosphate buffered saline (DPBS) overnight at room temperature; washed four times with wash buffer (Tris-buffered saline, pH 8.0, with 0.05% (v/v) polysorbate 20 (TWEEN®-20) (TBS-T) (BioFX Labs, # WSHW-1000-01) in a plate washer; blocked by adding 300 μL of blocking buffer (TBS-T plus 1% (w/v) bovine serum albumin (BSA) (Jackson Immuno, #001-000-162); and incubating for 60 min. at 37° C. Blocking buffer is then removed from the wells and 50 μL of antibodies in blocking buffer at final concentrations as indicated in Table 7 are added into each well, respectively. […] The plates with c-Met antibodies are incubated for 90 min. at 37° C. […] The wells are then washed four times with TBS-T in a plate washer. […] The plates are incubated for 90 min. at room temperature. The wells are again washed four times with TBS-T in a plate washer. 100 μL of a 1:200 dilution of streptavidin-horseradish peroxidase (HRP) (R&D Systems, DY998) in blocking buffer are added to each well. The plates are incubated for 30 min. at room temperature. The wells are washed four times with TBS-T in a plate washer. 100 μL/well of substrate solution (BioFx, #TMBW-1000-01) are then added, and the plates are incubated for 10 min. at room temperature. To stop the reaction, 100 μL/well of stop solution (BioFx, # LSTP-1000-01) are added. The samples are read at a wavelength of 450-570 nm on a microplate reader (Spectra, MAX 190) and no background is subtracted.

[3] = target: T2, human c-Met ECD-Fc-Flis; assay: HGF-blocking ELISA: HGF signal on coated c-Met ECD-Fc-Flis; Ab 7812.50 ng/mL
Experimental: as §1

[4] = target: T2, human c-Met ECD-Fc-Flis; assay: HGF-blocking ELISA: HGF signal on coated c-Met ECD-Fc-Flis; Ab 1.91 ng/mL
Experimental: as §1

[5] = target: T1, human c-Met; assay: cell-based or functional assay; remark: listed apart in the source
[6] = target: T2, human c-Met ECD-Fc-Flis; assay: HGF-blocking ELISA: HGF signal on coated c-Met ECD-Fc-Flis; Ab 0.48 ng/mL
Experimental: as §1

[7] = target: T2, human c-Met ECD-Fc-Flis; assay: HGF-blocking ELISA: HGF signal on coated c-Met ECD-Fc-Flis; Ab 31250.00 ng/mL
Experimental: as §1

[8] = target: T1, human c-Met; assay: cell-based or functional assay; remark: listed apart in the source
[9] = target: T2, human c-Met ECD-Fc-Flis; assay: HGF-blocking ELISA: HGF signal on coated c-Met ECD-Fc-Flis; Ab 0.00 ng/mL (HGF only)
Experimental: as §1

[10] = target: T2, human c-Met ECD-Fc-Flis; assay: HGF-blocking ELISA: HGF signal on coated c-Met ECD-Fc-Flis; Ab 30.52 ng/mL
Experimental: as §1

[11] = target: T2, human c-Met ECD-Fc-Flis; assay: HGF-blocking ELISA: HGF signal on coated c-Met ECD-Fc-Flis; Ab 1953.13 ng/mL
Experimental: as §1

[12] = target: T2, human c-Met ECD-Fc-Flis; assay: HGF-blocking ELISA: HGF signal on coated c-Met ECD-Fc-Flis; Ab 7.63 ng/mL
Experimental: as §1

[13] = target: T2, human c-Met ECD-Fc-Flis; assay: HGF-blocking ELISA: HGF signal on coated c-Met ECD-Fc-Flis; Ab 488.28 ng/mL
Experimental: as §1

[14] = target: T2, human c-Met ECD-Fc-Flis; assay: HGF-blocking ELISA: HGF signal on coated c-Met ECD-Fc-Flis; Ab 122.07 ng/mL
Experimental: as §1

[15] = target: T3, human c-Met (human, UniProt P08581 25-1390); assay: cell-based or functional assay; remark: listed apart in the source
T3 sequence (P08581 25-1390): as above

[16] = target: T3, human c-Met; assay: cell-based or functional assay; remark: listed apart in the source
[17] = target: T3, human c-Met; assay: cell-based or functional assay; remark: listed apart in the source

T2 sequence (chain, as listed by the source): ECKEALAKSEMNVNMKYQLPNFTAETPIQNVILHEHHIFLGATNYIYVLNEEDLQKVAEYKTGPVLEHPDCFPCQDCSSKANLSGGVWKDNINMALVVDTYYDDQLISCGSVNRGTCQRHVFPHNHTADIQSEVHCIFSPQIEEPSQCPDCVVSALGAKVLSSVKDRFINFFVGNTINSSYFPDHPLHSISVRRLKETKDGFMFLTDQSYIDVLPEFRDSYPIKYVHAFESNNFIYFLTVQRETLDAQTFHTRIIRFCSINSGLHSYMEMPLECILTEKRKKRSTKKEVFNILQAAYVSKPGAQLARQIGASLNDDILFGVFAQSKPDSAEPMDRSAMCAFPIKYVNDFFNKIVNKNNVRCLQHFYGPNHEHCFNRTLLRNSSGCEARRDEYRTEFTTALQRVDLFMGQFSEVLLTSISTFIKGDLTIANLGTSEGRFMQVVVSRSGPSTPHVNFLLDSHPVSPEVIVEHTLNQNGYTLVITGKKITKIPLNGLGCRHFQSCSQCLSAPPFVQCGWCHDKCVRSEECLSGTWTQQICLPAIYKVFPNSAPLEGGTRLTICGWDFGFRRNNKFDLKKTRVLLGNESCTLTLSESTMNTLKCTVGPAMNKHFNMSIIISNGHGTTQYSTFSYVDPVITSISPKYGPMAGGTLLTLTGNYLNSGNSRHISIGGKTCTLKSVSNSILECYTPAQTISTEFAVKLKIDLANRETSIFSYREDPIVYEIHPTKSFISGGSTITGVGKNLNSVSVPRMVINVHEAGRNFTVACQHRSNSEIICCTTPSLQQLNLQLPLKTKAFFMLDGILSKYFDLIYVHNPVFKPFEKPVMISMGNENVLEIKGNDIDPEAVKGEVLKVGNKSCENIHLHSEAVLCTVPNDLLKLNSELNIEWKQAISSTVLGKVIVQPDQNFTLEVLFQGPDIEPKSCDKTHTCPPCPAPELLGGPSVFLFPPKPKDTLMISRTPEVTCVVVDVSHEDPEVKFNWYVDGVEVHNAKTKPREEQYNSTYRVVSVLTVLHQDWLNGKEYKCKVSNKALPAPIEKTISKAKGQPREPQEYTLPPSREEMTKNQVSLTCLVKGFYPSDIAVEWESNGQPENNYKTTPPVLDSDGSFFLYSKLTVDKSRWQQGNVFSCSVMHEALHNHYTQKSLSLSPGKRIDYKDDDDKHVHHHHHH

- % inhibition of HGF stimulated phospho-Met (ELISA, HCT116 cells), Ab 0.0032 µg/mL [1]: -10.7%
- % inhibition of HGF stimulated phospho-Met (ELISA, HCT116 cells), Ab 0.016 µg/mL [1]: -2.89%
- % inhibition of HGF stimulated phospho-Met (ELISA, HCT116 cells), Ab 0.08 µg/mL [1]: 9.77%
- % inhibition of HGF stimulated phospho-Met (ELISA, HCT116 cells), Ab 0.4 µg/mL [1]: 45.1%
- % inhibition of HGF stimulated phospho-Met (ELISA, HCT116 cells), Ab 2 µg/mL [1]: 59%
- % inhibition of HGF stimulated phospho-Met (ELISA, HCT116 cells), Ab 10 µg/mL [1]: 65.4%
- AVG A450 nm [2]: 0.38 A450 nm
- AVG A450 nm [3]: 0.57 A450 nm
- AVG A450 nm [4]: 2.18 A450 nm
- AVG CPM, 3H-thymidine incorporation in MKN45 cells, Ab 0.0 ng/mL (no antibody) [5]: 51500 CPM
- AVG CPM, 3H-thymidine incorporation in MKN45 cells, Ab 0.1 ng/mL [5]: 45700 CPM
- AVG CPM, 3H-thymidine incorporation in MKN45 cells, Ab 0.4 ng/mL [5]: 47500 CPM
- AVG CPM, 3H-thymidine incorporation in MKN45 cells, Ab 2.6 ng/mL [5]: 53500 CPM
- AVG CPM, 3H-thymidine incorporation in MKN45 cells, Ab 15.4 ng/mL [5]: 22500 CPM
- AVG CPM, 3H-thymidine incorporation in MKN45 cells, Ab 92.6 ng/mL [5]: 12400 CPM
- AVG CPM, 3H-thymidine incorporation in MKN45 cells, Ab 555.6 ng/mL [5]: 13500 CPM
- AVG CPM, 3H-thymidine incorporation in MKN45 cells, Ab 3333.3 ng/mL [5]: 13000 CPM
- AVG CPM, 3H-thymidine incorporation in MKN45 cells, Ab 20000.0 ng/mL [5]: 11700 CPM
- AVG A450 nm [6]: 2.05 A450 nm
- AVG A450 nm [7]: 0.56 A450 nm
- Mean Fluorescence (c-Met left on the surface of MKN45 cells, FACS), Ab 5.00 ug/mL [8]: 56.2
- AVG A450 nm [9]: 2.61 A450 nm
- AVG A450 nm [10]: 2.08 A450 nm
- AVG A450 nm [11]: 0.6 A450 nm
- AVG A450 nm [12]: 2.2 A450 nm
- AVG A450 nm [13]: 0.7 A450 nm
- AVG A450 nm [14]: 1.3 A450 nm
B1: C8-co-16 (antibody, human IgG2, kappa, V domains shown)
VH: QVQLVQSGAEVKKPGASVKVSCKASGYTFTDYYMHWVRQAPGQGLEWMGRVNPYRGSTTYNQKFEGRVTMTTDTSTSTAYMELRSLRSDDTAVYYCARANILDYWGQGTTVTVSS
VL: DIQMTQSPSSLSASVGDRVTITCSVSSSVRSIYLHWYQQKPGKAPKLLIYSTSNLASGVPSRFSGSGSGTDFTLTISSLQPEDFATYYCQVYRGYPLTFGGGTKVEIKR
notes: Named IgG4 kappa; also called C8-co-16 IgG4

- 3H-Thymidine Incorporation in Caki-1 Cells in the Absence of HGF (AVG CPM), antibody dose 0.1 ng/mL [15]: 15600 CPM
- 3H-Thymidine Incorporation in Caki-1 Cells in the Absence of HGF (AVG CPM), antibody dose 0.4 ng/mL [15]: 14100 CPM
- 3H-Thymidine Incorporation in Caki-1 Cells in the Absence of HGF (AVG CPM), antibody dose 2.6 ng/mL [15]: 13700 CPM
- 3H-Thymidine Incorporation in Caki-1 Cells in the Absence of HGF (AVG CPM), antibody dose 15.4 ng/mL [15]: 12100 CPM
- 3H-Thymidine Incorporation in Caki-1 Cells in the Absence of HGF (AVG CPM), antibody dose 92.6 ng/mL [15]: 11600 CPM
- 3H-Thymidine Incorporation in Caki-1 Cells in the Absence of HGF (AVG CPM), antibody dose 555.6 ng/mL [15]: 11400 CPM
- 3H-Thymidine Incorporation in Caki-1 Cells in the Absence of HGF (AVG CPM), antibody dose 3333.3 ng/mL [15]: 13800 CPM
- 3H-Thymidine Incorporation in Caki-1 Cells in the Absence of HGF (AVG CPM), antibody dose 20000.0 ng/mL [15]: 13100 CPM
- 3H-Thymidine Incorporation in Primary Human Hepatocytes in the Absence of HGF (average), dose 0.0032 ug/mL [16]: 829
- 3H-Thymidine Incorporation in Primary Human Hepatocytes in the Absence of HGF (average), dose 0.016 ug/mL [16]: 716
- 3H-Thymidine Incorporation in Primary Human Hepatocytes in the Absence of HGF (average), dose 0.08 ug/mL [16]: 767
- 3H-Thymidine Incorporation in Primary Human Hepatocytes in the Absence of HGF (average), dose 0.4 ug/mL [16]: 670
- 3H-Thymidine Incorporation in Primary Human Hepatocytes in the Absence of HGF (average), dose 2 ug/mL [16]: 822
- 3H-Thymidine Incorporation in Primary Human Hepatocytes in the Absence of HGF (average), dose 10 ug/mL [16]: 952
- Percent of DU145 Cells in Colonies (scatter assay), antibody 20 ug/mL [17]: 23.7%
B2: C8-co-16 (antibody, human IgG2, kappa, V domains shown)
VH: B1 VH
VL: B1 VL
